Here are results for 2 molecules from patent US9051577 (GREENOVATION BIOTECH, dated 2015).

Assay in all cases: cell-based or functional assay
Assay [1] concerns the target CD16 (FcgammaRIIIa) 158V/V, high affinity phenotype, on effector cells (PBMC/NK) of a human donor (human) (UniProt P08637).
Assay [2] deals with CD16 (FcgammaRIIIa) 158F/F, low affinity phenotype, on effector cells (PBMC/NK) of a human donor (human) (UniProt P08637).
Assay [3] has as its target Fcgamma-RIII receptor (CD16) on human PBMC effector cells, 158 genotype of the donor not stated (human) (UniProt P08637).
Assay [4] deals with Fcgamma-RIII receptor (CD16) on human PBMC effector cells, 158 genotype of the donor not stated (human, UniProt P08637 17-254).
The target in assay [5] is CD16 (FcgammaRIIIa) 158V/V, high affinity phenotype, on effector cells (PBMC/NK) of a human donor (human, UniProt P08637 17-254).
Assay [6] concerns the target CD16 (FcgammaRIIIa) 158F/F, low affinity phenotype, on effector cells (PBMC/NK) of a human donor (human, UniProt P08637 17-254).

CD16 (FcgammaRIIIa) 158V/V, high affinity phenotype, on effector cells (PBMC/NK) of a human donor, sequence (P08637 17-254 F176V): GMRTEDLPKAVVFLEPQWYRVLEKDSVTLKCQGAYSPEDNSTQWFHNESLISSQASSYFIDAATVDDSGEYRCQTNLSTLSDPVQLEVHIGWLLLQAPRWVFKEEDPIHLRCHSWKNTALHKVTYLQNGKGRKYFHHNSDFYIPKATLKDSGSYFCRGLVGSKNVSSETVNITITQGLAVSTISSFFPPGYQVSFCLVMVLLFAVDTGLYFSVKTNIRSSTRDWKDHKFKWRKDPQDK
CD16 (FcgammaRIIIa) 158V/V, high affinity phenotype, on effector cells (PBMC/NK) of a human donor (human), sequence (P08637 17-254 F176V): as above
Fcgamma-RIII receptor (CD16) on human PBMC effector cells, 158 genotype of the donor not stated, sequence (P08637 17-254): as the sequence (P08637 17-254 F176V) above, with V160F counted along it
Fcgamma-RIII receptor (CD16) on human PBMC effector cells, 158 genotype of the donor not stated (human), sequence (P08637 17-254): as the sequence (P08637 17-254 F176V) above, with V160F counted along it
CD16 (FcgammaRIIIa) 158F/F, low affinity phenotype, on effector cells (PBMC/NK) of a human donor (human), sequence (P08637 17-254): as the sequence (P08637 17-254 F176V) above, with V160F counted along it
CD16 (FcgammaRIIIa) 158F/F, low affinity phenotype, on effector cells (PBMC/NK) of a human donor, sequence (P08637 17-254): as the sequence (P08637 17-254 F176V) above, with V160F counted along it

For “IGN314, glyco-engineered IGN311 variant expressed in delta-xyl-t/delta-fuc-t double knockout moss (Physcomitrella patens) (antibody)”, in assay [1], the EC50 of ADCC lysis (51Cr release), OVCAR-3 target cells, CD16158 V/V effector cells amounted to 0.008 µg/mL; the EC50 of ADCC lysis (51Cr release), SK-BR-3 target cells, CD16158 V/V effector cells stood at 0.144 µg/mL; the EC50 of ADCC lysis (51Cr release), TF-1 target cells, CD16158 V/V effector cells worked out at 0.366 µg/mL; the Enhancement (ADCC EC50 of IGN311 against IGN314), OVCAR-3, V/V effector cells is 39 fold. In assay [1], the Enhancement (ADCC EC50 of IGN311 against IGN314), SK-BR-3, V/V effector cells is 7 fold and the Enhancement (ADCC EC50 of IGN311 against IGN314), TF-1, V/V effector cells was determined as 15 fold. Also, in assay [2], the EC50 of ADCC lysis (51Cr release), OVCAR-3 target cells, CD16158 F/F effector cells is 0.025 µg/mL and the Enhancement (ADCC EC50 of IGN311 against IGN314), OVCAR-3, F/F effector cells was determined as 40 fold. Also, in assay [3], the EC50 of ADCC lysis of SK-BR-3 cells by human PBMC in 10% FCS was determined as 0.052 µg/mL and the EC50 of ADCC lysis of SK-BR-3 cells by human PBMC in 40% NHS amounted to 0.126 µg/mL.

B1: IGN311, humanized monoclonal IgG anti-Lewis Y antibody (parental, expressed in SP 2.0 cells) (antibody, V domains shown)
VH: EVQLLESGGGLVQPGGSLRLSCAASGFTFSDYYMYWVRQAPEKRLEWVAYISNGGGSSHYVDSVKGRFTISRDNSKNTLYLQMNSLRAEDTALYHCARGMDYGAWFAYWGQGTLVTVSS
VL: DIVMTQSPLSLPVTPGEPASISCRSSQSIVHSNGNTYLEWYLQKPGQSPQLLISKVSNRFSGVPDRFSGSGSGTDFTLKISRVEAEDVGVYYCFQGSHVPFTFGQGTKLEIK
modifications: N-glycan at Asn297 almost completely core-fucosylated, with terminal galactosylation; C-terminal lysine of the heavy chain partly present (both SLSLSPG and SLSLSPGK detected)
For the molecule B1, in assay [4], the “EC50 of ADCC lysis of SK-BR-3 cells by human PBMC in 10% FCS” value came to 0.301 µg/mL and the “EC50 of ADCC lysis of SK-BR-3 cells by human PBMC in 40% NHS” value is 1.56 µg/mL. In assay [5], the “EC50 of ADCC lysis (51Cr release), OVCAR-3 target cells, CD16158 V/V effector cells” value is 0.315 µg/mL; the “EC50 of ADCC lysis (51Cr release), SK-BR-3 target cells, CD16158 V/V effector cells” value worked out at 1.04 µg/mL; the “EC50 of ADCC lysis (51Cr release), TF-1 target cells, CD16158 V/V effector cells” value amounted to 5.32 µg/mL. Further, in assay [6], the “EC50 of ADCC lysis (51Cr release), OVCAR-3 target cells, CD16158 F/F effector cells” value was 0.993 µg/mL.
